Assay results as given in patent US20180119149.
Where two headings read alike, the source gives them in different places.

Columns and labels:
[1] = target: HER2 (ErbB2) (Homo sapiens) (UniProt P04626)
[2] = target: PD-L1 (UniProt Q9NZQ7); conditions: bulk Kd, bead-based fluorescence
[3] = target: ubiquitin (UniProt P0CG48); conditions: bulk Kd, bead-based fluorescence
[4] = target: PDGF-BB (Homo sapiens) (UniProt P01127); conditions: bulk Kd, bead-based fluorescence
[5] = target: HER2 (ErbB2) (Homo sapiens) (UniProt P04626); conditions: bulk Kd, with formaldehyde cross-linking; about 5-fold higher Kd without
[6] = target: EGFR (UniProt P00533); conditions: HER2 about 4 times higher
[7] = target: ErbB3 (HER3) (UniProt P21860); conditions: HER2 about 4 times higher
[8] = target: T1, ErbB4 (HER4) (UniProt Q15303); conditions: HER2 about 4 times higher
T1 sequence: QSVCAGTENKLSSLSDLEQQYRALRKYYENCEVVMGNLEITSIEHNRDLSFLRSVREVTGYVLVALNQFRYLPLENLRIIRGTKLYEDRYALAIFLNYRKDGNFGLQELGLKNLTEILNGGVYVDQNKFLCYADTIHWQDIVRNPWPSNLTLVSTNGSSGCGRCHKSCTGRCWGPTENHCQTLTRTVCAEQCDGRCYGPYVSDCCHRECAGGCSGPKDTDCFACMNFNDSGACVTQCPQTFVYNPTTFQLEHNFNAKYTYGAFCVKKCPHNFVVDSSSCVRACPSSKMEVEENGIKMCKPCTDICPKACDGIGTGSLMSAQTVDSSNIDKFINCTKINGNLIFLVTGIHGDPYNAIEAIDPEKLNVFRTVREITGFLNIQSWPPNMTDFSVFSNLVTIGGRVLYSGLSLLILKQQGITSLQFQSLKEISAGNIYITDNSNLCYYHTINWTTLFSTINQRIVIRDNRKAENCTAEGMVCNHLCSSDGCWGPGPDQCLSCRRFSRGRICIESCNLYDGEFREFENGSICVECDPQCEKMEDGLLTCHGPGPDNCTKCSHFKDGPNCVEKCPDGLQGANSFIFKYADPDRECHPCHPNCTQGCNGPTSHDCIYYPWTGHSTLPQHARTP

[9] = tested on: IgE (Homo sapiens); conditions: bulk Kd, bead-based fluorescence
[10] = target: PDGF-BB (Homo sapiens) (UniProt P01127); conditions: unselected library on PDGF-BB beads, with formaldehyde cross-linking
[11] = target: CTLA-4 (UniProt P16410); conditions: bulk Kd, bead-based fluorescence
Sequence of CTLA-4 (P16410 36-161): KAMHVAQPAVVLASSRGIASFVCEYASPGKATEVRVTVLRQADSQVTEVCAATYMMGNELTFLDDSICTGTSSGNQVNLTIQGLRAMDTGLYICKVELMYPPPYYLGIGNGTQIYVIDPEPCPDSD

Sequence of PDGF-BB (Homo sapiens) (P01127 82-190): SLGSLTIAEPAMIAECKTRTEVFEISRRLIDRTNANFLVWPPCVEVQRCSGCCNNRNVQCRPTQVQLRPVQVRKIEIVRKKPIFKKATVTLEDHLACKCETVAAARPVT
Sequence of PD-L1 (Q9NZQ7 19-238): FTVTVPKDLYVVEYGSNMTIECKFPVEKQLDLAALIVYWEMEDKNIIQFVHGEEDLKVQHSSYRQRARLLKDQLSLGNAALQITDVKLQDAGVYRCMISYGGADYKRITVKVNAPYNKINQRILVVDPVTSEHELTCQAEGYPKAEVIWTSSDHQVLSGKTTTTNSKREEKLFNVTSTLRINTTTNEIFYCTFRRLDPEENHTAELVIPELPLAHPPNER
Sequence of ErbB3 (HER3) (P21860 20-643): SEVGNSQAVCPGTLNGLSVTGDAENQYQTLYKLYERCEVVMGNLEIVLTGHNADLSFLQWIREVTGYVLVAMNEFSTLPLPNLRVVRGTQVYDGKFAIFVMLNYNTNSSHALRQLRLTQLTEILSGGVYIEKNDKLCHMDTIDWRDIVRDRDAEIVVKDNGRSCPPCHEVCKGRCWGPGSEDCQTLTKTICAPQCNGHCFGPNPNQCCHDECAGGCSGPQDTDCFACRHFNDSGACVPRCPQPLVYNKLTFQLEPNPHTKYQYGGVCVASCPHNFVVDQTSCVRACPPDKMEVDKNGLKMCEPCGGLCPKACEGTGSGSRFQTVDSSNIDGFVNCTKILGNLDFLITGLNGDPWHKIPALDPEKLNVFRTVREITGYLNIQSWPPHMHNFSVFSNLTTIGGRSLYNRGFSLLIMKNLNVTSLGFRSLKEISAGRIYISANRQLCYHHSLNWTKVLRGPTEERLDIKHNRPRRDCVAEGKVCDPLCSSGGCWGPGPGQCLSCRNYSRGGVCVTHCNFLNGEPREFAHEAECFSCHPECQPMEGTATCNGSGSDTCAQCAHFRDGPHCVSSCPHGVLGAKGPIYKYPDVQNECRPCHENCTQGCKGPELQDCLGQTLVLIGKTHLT

**Q.** With “AGCAGCACAGAGGTCAGATGNNNNNNNNNNNNNNNNNNNNNNNNNNNNNNNNNNNNNNNNCCTATGCGTGCTACCGTGAA [HER2 round 1 pool]” as the sequence, how does the Kd ([1]; bulk Kd, with formaldehyde cross-linking) read?
**A.** 0.0221 µM

**Q.** How did the Kd [2] turn out when “AGCAGCACAGAGGTCAGATGNNNNNNNNNNNNNNNNNNNNNNNNNNNNNNNNNNNNNNNNCCTATGCGTGCTACCGTGAA [PD-L1 round 3 pool]” was run?
**A.** 0.0155 µM

**Q.** With “AGCAGCACAGAGGTCAGATGNNNNNNNNNNNNNNNNNNNNNNNNNNNNNNNNNNNNNNNNCCTATGCGTGCTACCGTGAA [ubiquitin round 3 pool]” as the sequence, how does the Kd [3] read?
**A.** 0.0119 µM

**Q.** How did the Kd [4] turn out when “AGCAGCACAGAGGTCAGATGNNNNNNNNNNNNNNNNNNNNNNNNNNNNNNNNNNNNNNNNCCTATGCGTGCTACCGTGAA [PDGF-BB round 3 pool]” was run?
**A.** 0.0019 µM

**Q.** “AGCAGCACAGAGGTCAGATGNNNNNNNNNNNNNNNNNNNNNNNNNNNNNNNNNNNNNNNNCCTATGCGTGCTACCGTGAA [HER2 round 3 pool]” was tested. Which Kd [5] did it give?
**A.** 0.0068 µM

**Q.** And the binding signal (fraction of HER2 signal) [6]?
**A.** 0.25

**Q.** And the binding signal (fraction of HER2 signal) [7]?
**A.** 0.25

**Q.** And the binding signal (fraction of HER2 signal) [8]?
**A.** 0.25

**Q.** With “AGCAGCACAGAGGTCAGATGNNNNNNNNNNNNNNNNNNNNNNNNNNNNNNNNNNNNNNNNCCTATGCGTGCTACCGTGAA [IgE round 3 pool]” as the sequence, how does the Kd [9] read?
**A.** 0.0084 µM

**Q.** Which binding signal [10] does the source give for “AGCAGCACAGAGGTCAGATGNNNNNNNNNNNNNNNNNNNNNNNNNNNNNNNNNNNNNNNNCCTATGCGTGCTACCGTGAA [unselected ssDNA library (N40)]” here?
**A.** < 2 % bound

**Q.** And the Kd ([1]; no obvious binding)?
**A.** > 1 µM

**Q.** “AGCAGCACAGAGGTCAGATGNNNNNNNNNNNNNNNNNNNNNNNNNNNNNNNNNNNNNNNNCCTATGCGTGCTACCGTGAA [CTLA-4 round 3 pool]” was tested. Which Kd [11] did it give?
**A.** 0.0104 µM
